# Source: patent US20110294144
# Test system: recombinant tau protein (Wako Pure Chemical Industries, Ltd.)
substance,measurement,value
recombinant PRKX protein (Invitrogen),"S214 phosphorylation of tau, in vitro kinase reaction of the two recombinant proteins, Western blot",the amount of S214 phosphorylation was enhanced by the addition of ATP as compared to the control without addition of ATP
